The assay addresses hK3 (PSA) (human) (UniProt P07288). Kind of assay: cell-based or functional assay.

hK3 (PSA) (human), sequence (P07288 25-261 limits assumed): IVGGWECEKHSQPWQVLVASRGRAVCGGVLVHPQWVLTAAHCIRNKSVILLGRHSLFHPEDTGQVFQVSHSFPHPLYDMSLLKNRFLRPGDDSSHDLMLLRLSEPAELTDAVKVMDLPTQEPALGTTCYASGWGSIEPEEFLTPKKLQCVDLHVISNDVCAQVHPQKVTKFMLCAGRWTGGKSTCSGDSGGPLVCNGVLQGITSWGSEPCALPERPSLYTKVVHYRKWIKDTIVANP

B1: rACT8.20 (designed binder)
chain: MRGSHHHHHHSRHPNSPLDEENLTQENQDRGTHVDLGLASANVDFAFSLYKQLVLKAPDKNVIFSPLSISTALAFLSLGAHNTTLTEILKGLKFNLTETSEAEIHQSFQHLLRTLNQSSDELQLSMGNAMFVKEQLSLLDRFTEDAKRLYGSEAFATDFQDSAAAKKLINDYVKNGTRGKITDLIKDLDSQTMMVLVNYIFFKAKWEMPFDPQDTHQSRFYLSKKKWVMVPMMSLHHLTIPYFRDEELSCTVVELKYTGNASALFILPDQDKMEEVEAMLLPETLKRWRDSLEFREIGELYLPKFSISRDYNLNDILLQLGIEEAFTSKADLSGITGARNLAVSQVVHKAVLDVFEEGTEASAATAVKITLRSRAVETRTIVRFNRPFLMIIVPTDTQNIFFMSKVTNPKQA
B1: the Inhibition % (residual enzyme activity, CFP-TFRSA-YFP substrate, 90 min at 37°) came out at 45%.

These data come from patent publication US20060269536A1.
